Reference: IntAct's records for PubMed 18940604

B1: Ras-related protein Rab-27A (Mus musculus), Q9ERI2 (parent)
chain: MSDGDYDYLIKFLALGDSGVGKTSVLYQYTDGKFNSKFITTVGIDFREKRVVYRANGPDGAVGRGQRIHLQLWDTAGQERFRSLTTAFFRDAMGFLLLFDLTNEQSFLNVRNWISQLQMHAYCENPDIVLCGNKSDLEDQRAVKEEEARELAEKYGIPYFETSAANGTNISHAIEMLLDLIMKRMERCVDKSWIPEGVVRSNGHTSADQLSEEKEKGLCGC
partner: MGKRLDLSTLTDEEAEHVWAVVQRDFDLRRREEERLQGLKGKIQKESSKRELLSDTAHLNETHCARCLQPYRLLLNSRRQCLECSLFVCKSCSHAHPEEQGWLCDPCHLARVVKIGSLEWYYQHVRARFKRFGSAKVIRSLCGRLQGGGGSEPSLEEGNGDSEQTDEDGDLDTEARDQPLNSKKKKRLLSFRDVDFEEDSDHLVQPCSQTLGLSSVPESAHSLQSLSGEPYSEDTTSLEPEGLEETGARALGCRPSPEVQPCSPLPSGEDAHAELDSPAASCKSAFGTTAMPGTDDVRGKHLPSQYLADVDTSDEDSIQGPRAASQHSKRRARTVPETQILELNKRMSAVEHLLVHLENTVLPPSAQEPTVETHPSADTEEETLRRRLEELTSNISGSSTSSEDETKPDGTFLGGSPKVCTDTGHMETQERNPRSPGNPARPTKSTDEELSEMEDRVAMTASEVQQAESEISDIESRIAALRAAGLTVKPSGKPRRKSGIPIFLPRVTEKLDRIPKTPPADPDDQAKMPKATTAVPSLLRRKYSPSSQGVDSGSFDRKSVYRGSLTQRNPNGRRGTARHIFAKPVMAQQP
B2: Ras-related protein Rab-3A (Mus musculus), P63011 (parent)
chain: MASATDSRYGQKESSDQNFDYMFKILIIGNSSVGKTSFLFRYADDSFTPAFVSTVGIDFKVKTIYRNDKRIKLQIWDTAGQERYRTITTAYYRGAMGFILMYDITNEESFNAVQDWSTQIKTYSWDNAQVLLVGNKCDMEDERVVSSERGRQLADHLGFEFFEASAKDNINVKQTFERLVDVICEKMSESLDTADPAVTGAKQGPQLTDQQAPPHQDCAC
partner: B1 partner

Variants of: B1
Settings: with melph_mouse Mlph

effect of a mutation on the interaction | Variant
disrupting interaction | Y6F
disrupting interaction | Y6F;L84I;F88Y;D91G

Variants of: B2
Settings: with melph_mouse Mlph

effect of a mutation on the interaction | Variant
disrupting interaction | F19Y
disrupting interaction | F19Y;G94D
disrupting interaction | G94D
disrupting interaction | I87L;Y91F;G94D
